From paper PMC2929395

Substrate: CC(C)(CO)[C@@H](O)C(=O)NCCC(=O)O
Assay: purified protein, by the assay type
Details: pH 7.5, 37.0 °C

B1: PanK3(S195V) (Homo sapiens; S195V) (protein)
chain: MKIKDAKKPSFPWFGMDIGGTLVKLSYFEPIDITAEEEQEEVESLKSIRKYLTSNVAYGSTGIRDVHLELKDLTLFGRRGNLHFIRFPTQDLPTFIQMGRDKNFSTLQTVLCATGGGAYKFEKDFRTIGNLHLHKLDELDCLVKGLLYIDSVSFNGQAECYYFANASEPERCQKMPFNLDDPYPLLVVNIGSGVVILAVHSKDNYKRVTGTSLGGGTFLGLCSLLTGCESFEEALEMASKGDSTQADKLVRDIYGGDYERFGLPGWAVASSFGNMIYKEKRESVSKEDLARATLVTITNNIGSVARMCAVNEKINRVVFVGNFLRVNTLSMKLLAYALDYWSKGQLKALFLEHEGYFGAVGALLGLPNFS
Km (other: substrate): 151 ± 16 µM

B2: PanK3 (Homo sapiens) (protein)
chain: MKIKDAKKPSFPWFGMDIGGTLVKLSYFEPIDITAEEEQEEVESLKSIRKYLTSNVAYGSTGIRDVHLELKDLTLFGRRGNLHFIRFPTQDLPTFIQMGRDKNFSTLQTVLCATGGGAYKFEKDFRTIGNLHLHKLDELDCLVKGLLYIDSVSFNGQAECYYFANASEPERCQKMPFNLDDPYPLLVVNIGSGVSILAVHSKDNYKRVTGTSLGGGTFLGLCSLLTGCESFEEALEMASKGDSTQADKLVRDIYGGDYERFGLPGWAVASSFGNMIYKEKRESVSKEDLARATLVTITNNIGSVARMCAVNEKINRVVFVGNFLRVNTLSMKLLAYALDYWSKGQLKALFLEHEGYFGAVGALLGLPNFS
Km (other: wild-type PanK3, substrate): 14 ± 0.1 µM
